{"source": "paper PMC7049810", "about": "“Outer membrane lipoprotein NlpI scaffolds peptidoglycan hydrolases within multi‐enzyme complexes in Escherichia coli” (The EMBO Journal, 2020)", "binders": {"B1": {"name": "NlpI, soluble version lacking its membrane anchor (natural protein, Escherichia coli)", "chain": "SNTSWRKSEVLAVPLQPTLQQEVILARMEQILASRALTDDERAQLLYERGVLYDSLGLRALARNDFSQALAIRPDMPEVFNYLGIYLTQAGNFDAAYEAFDSVLELDPTYNYAHLNRGIALYYGGRDKLAQDDLLAFYQDDPNDPFRSLWLYLAEQKLDEKQAKEVLKQHFEKSDKEQWGWNIVEFYLGNISEQTLMERLKADATDNTSLAEHLSETNFYLGKYYLSLGDLDSATALFKLAVANNVHNFVEHRYALLELSLLGQDQDDLAESDQQ", "modifications": "where used as fl-NlpI in MST: NT647 RED-NHS dye on amines", "notes": "Outer membrane lipoprotein NlpI of E. coli, soluble version lacking its membrane anchor; Homodimer by AUC; also called fl-NlpI (fluorescently labelled); His-NlpI; source: E. coli BL21 (λDE3), purified (HisTrap HP, Superdex 200)"}}, "key": {"[1]": {"target": "the molecule itself", "test": "MST; titration: NT647-labelled protein against a two-fold serial dilution (16 steps) of unlabelled ligand; 25 mM HEPES/NaOH, 150 mM NaCl, 0.05% Triton X-100, pH 7.5; Monolith NT.115; apparent constants; for NlpI with itself: dimer to monomers"}, "MepM": {"target": "T1, MepM (Escherichia coli, UniProt P0AFS9 41-440)", "T1 construct": "Peptidoglycan endopeptidase MepM of E. coli; source: purified as previously described in Moré et al (2019)", "T1 sequence (looked up)": "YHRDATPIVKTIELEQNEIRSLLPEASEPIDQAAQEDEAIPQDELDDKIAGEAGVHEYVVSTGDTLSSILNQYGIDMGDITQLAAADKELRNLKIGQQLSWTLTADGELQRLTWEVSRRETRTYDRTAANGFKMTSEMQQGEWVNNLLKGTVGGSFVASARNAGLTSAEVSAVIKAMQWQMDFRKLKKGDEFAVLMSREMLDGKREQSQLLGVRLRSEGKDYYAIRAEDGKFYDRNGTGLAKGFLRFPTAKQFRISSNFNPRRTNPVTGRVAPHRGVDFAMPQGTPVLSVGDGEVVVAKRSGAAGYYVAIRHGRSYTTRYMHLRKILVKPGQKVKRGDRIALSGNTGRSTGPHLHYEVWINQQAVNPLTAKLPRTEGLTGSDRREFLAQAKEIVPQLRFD", "test": "MST; titration: NT647-labelled protein against a two-fold serial dilution (16 steps) of unlabelled ligand; 25 mM HEPES/NaOH, 150 mM NaCl, 0.05% Triton X-100, pH 7.5; Monolith NT.115; apparent constants; for NlpI with itself: dimer to monomers", "conditions": "both partners purified"}, "PBP4, native, purified": {"target": "T2, PBP4, native, purified (Escherichia coli, UniProt P24228 21-477, where used as the labelled protein in MST: NT647 RED-NHS dye on amines)", "T2 construct": "PBP4 (DD-endopeptidase) of E. coli, 'native PBP4' purified after Kishida et al (2006); Untagged ('native'); source: E. coli BL21 (λDE3), purified (HiTrap Q, hydroxyapatite, Superdex 200)", "T2 sequence (P24228 21-477)": "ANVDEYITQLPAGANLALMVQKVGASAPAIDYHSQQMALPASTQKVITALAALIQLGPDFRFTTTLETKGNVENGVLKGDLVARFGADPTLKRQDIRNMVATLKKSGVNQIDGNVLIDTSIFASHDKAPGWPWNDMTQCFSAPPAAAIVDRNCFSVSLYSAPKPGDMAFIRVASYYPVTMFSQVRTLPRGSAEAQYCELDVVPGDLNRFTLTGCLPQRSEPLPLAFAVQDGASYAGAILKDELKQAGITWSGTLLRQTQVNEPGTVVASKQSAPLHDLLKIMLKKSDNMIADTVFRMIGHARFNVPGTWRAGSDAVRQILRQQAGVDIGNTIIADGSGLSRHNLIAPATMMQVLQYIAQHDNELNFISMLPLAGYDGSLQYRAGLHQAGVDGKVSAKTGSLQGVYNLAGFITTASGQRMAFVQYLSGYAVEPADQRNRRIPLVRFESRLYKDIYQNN", "test": "MST; titration: NT647-labelled protein against a two-fold serial dilution (16 steps) of unlabelled ligand; 25 mM HEPES/NaOH, 150 mM NaCl, 0.05% Triton X-100, pH 7.5; Monolith NT.115; apparent constants; for NlpI with itself: dimer to monomers", "conditions": "both partners purified"}, "[2]": {"target": "the molecule itself", "test": "AUC; sedimentation velocity, 45,000 rpm, 20°C, 25 mM HEPES/NaOH, 150 mM NaCl, pH 7.5; NlpI 0.3-1.2 mg/ml; c(s) model"}, "PBP7, purified": {"target": "T3, PBP7, purified (Escherichia coli, UniProt P0AFI5 26-310, where used as the labelled protein in MST: NT647 RED-NHS dye on amines)", "T3 construct": "PBP7 (DD-endopeptidase) of E. coli; source: E. coli BL21 (λDE3), purified (HisTrap HP, Superdex 200)", "T3 sequence (looked up)": "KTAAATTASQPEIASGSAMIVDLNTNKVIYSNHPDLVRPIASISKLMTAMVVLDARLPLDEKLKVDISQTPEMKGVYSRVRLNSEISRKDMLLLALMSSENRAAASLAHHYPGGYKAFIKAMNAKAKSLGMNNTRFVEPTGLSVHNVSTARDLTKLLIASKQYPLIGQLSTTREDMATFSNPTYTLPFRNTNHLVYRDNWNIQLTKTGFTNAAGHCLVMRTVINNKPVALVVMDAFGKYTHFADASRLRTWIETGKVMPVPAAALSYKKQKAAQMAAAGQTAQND", "test": "pull-down; Ni2+-NTA agarose beads; His-tagged protein with untagged or native ligand, overnight at 4°C; 10 mM HEPES/NaOH, 10 mM MgCl2, 150 mM NaCl, 0.05% Triton X-100, pH 7.5; washes with 30 mM imidazole; SDS-PAGE", "conditions": "both partners purified"}}}
{"binder": "B1", "values": [{"measurement": "Kd", "setting": "[1]", "value": 126, "unit": "nM"}, {"measurement": "Kd", "setting": "MepM", "value": 152, "unit": "nM"}, {"measurement": "Kd", "setting": "PBP4, native, purified", "value": 177, "unit": "nM"}, {"measurement": "stoichiometry N", "setting": "[2]", "value": 2}, {"measurement": "binding result", "setting": "PBP7, purified", "value": "binds"}]}
